Test results as given in patent US20210332115A1 (Sanofi, published 2021).

Assays:
[1] = biological target: T1, Homo sapiens factor Bb protein (human, UniProt P00751 260-764); experiment: SPR single cycle kinetics; ratio against VH0/Vκ0
T1 construct: Bought from CompTech (A155); also called complement factor Bb; human factor Bb
Method: (§1) In order to assess the binding of all humanized variants, single cycle kinetic analysis was performed on supernatants from transfected cell cultures. […] All single cycle kinetic experiments were run at 25° C. with HBS-P+running buffer (pH 7. 4) (GE Healthcare, Little Chalfont, UK).
(§2) Antibodies were diluted in running buffer to a final concentration of 1 μg/ml, based on concentrations assessed by ELISA titer. At the start of each cycle, antibodies were loaded onto Fc2, Fc3 and Fc4 of the Protein A chip (GE Healthcare, Little Chalfont, UK). IgGs were captured at a flow rate of 10 μl/min to give an immobilization level (RL) of ˜63 RU, the theoretical value to obtain an Rmax of ˜50 RU. The surface was then allowed to stabilize. Single cycle kinetic data was obtained with factor Bb (CompTech, Tyler, USA) as the analyte at a flow rate of 30 μl/min to minimize any potential mass transport limitations. Multiple repeats with the reference chimeric antibody were performed to check the stability of the surface and analyte over the kinetic cycles. The signal from the reference channel Fc1 (no antibody) was subtracted from that of Fc2, Fc3 and Fc4 to correct for differences in non-specific binding to a reference surface. A four point, two-fold dilution range from 0. 78 nM to 6. 25 nM factor Bb without regeneration between each concentration was used. The association phase for the four injections of increasing concentrations of factor Bb was monitored for 200 seconds each time and a single dissociation phase was measured for 200 seconds following the last injection of factor Bb. Regeneration of the Protein A surface was conducted using two injections of 10 mM glycine-HCL pH 1. 5.
(§3) The sensorgrams and fitted data for the single cycle kinetics are shown in FIGS. 1A-1D and the kinetic parameters measured for the interaction of factor Bb with each antibody are shown in Table 7. The relative KD was calculated by dividing the KD of the VH0/Vκ0 reference antibody by that of the humanized variant assayed in the same experiment.

[2] = biological target: T1, Homo sapiens factor Bb protein; experiment: SPR single cycle kinetics, IgG on Protein A chip, factor Bb analyte
Method: as §1, §2, §3

T1 sequence (P00751 260-764 limits assumed): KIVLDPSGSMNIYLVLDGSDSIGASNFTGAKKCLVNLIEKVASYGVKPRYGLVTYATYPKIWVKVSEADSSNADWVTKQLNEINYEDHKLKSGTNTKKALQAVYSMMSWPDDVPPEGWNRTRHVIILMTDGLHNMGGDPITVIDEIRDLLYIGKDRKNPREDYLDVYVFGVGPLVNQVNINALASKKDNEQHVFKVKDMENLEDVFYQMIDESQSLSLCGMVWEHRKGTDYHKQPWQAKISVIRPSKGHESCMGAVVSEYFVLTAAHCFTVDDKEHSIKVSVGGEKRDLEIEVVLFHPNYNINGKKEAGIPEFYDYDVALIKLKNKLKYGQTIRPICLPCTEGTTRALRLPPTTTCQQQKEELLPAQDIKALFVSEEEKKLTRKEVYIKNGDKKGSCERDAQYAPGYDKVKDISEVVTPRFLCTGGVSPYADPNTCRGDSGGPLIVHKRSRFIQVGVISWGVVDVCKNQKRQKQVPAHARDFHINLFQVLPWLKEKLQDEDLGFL

| Binder | Relative KD [1] | Kd [2] [nM] | koff [2] [s⁻¹] | kon [2] [M⁻¹ s⁻¹] |
| --- | --- | --- | --- | --- |
| VH1/Vκ2 (antibody, V domains shown) VH: EVQLVESGGGLVKPGGSLRLSCAASGFTFSNYAMSWVRQAPGKGLEWVATISNRGSYTYYPDSVKGRFTISRDNAKNSLYLQMSSLRSEDTALYYCARERPMDYWGQGTSVTVSS VL: DIVMTQSPSTLSASVGDRVTITCKASQDVGTAVAWYQQKPGQPPKLLIYWASTRHTGVPDRFTGSGSGTDFTLTISSLQAEDFAVYFCHQHSSNPLTFGQGTKLEIK | 2.97 | 5.22 | 0.00251 | 481000 |
| VH2/Vκ3 (antibody, V domains shown) VH: EVQLVESGGGLVKPGGSLRLSCAASGFTFSNYAMSWVRQAPGKGLEWVATISNRGSYTYYPDSVKGRFTISRDNAKNSLYLQMNSLRAEDTALYYCARERPMDYWGQGTLVTVSS VL: DIQMTQSPSTLSASVGDRVTITCKASQDVGTAVAWYQQKPGQPPKLLIYWASTRHTGVPDRFSGSGSGTDFTLTISSLQAEDFAVYFCHQHSSNPLTFGQGTKLEIK | 6.93 | 12.2 | 0.00307 | 252000 |
| VH1/Vκ1 (antibody, V domains shown) VH: EVQLVESGGGLVKPGGSLRLSCAASGFTFSNYAMSWVRQAPGKGLEWVATISNRGSYTYYPDSVKGRFTISRDNAKNSLYLQMSSLRSEDTALYYCARERPMDYWGQGTSVTVSS VL: DIVMTQSPSFLSASVGDRVTITCKASQDVGTAVAWYQQKPGQPPKLLIYWASTRHTGVPDRFTGSGSGTDFTLTISSLQSEDFAVYFCHQHSSNPLTFGQGTKLEIK | 2.85 | 5.01 | 0.00287 | 574000 |
| VH1/Vκ3 (antibody, V domains shown) VH: EVQLVESGGGLVKPGGSLRLSCAASGFTFSNYAMSWVRQAPGKGLEWVATISNRGSYTYYPDSVKGRFTISRDNAKNSLYLQMSSLRSEDTALYYCARERPMDYWGQGTSVTVSS VL: DIQMTQSPSTLSASVGDRVTITCKASQDVGTAVAWYQQKPGQPPKLLIYWASTRHTGVPDRFSGSGSGTDFTLTISSLQAEDFAVYFCHQHSSNPLTFGQGTKLEIK | 2.22 | 3.9 | 0.00263 | 675000 |
| VH1/Vκ5 (antibody, V domains shown) VH: EVQLVESGGGLVKPGGSLRLSCAASGFTFSNYAMSWVRQAPGKGLEWVATISNRGSYTYYPDSVKGRFTISRDNAKNSLYLQMSSLRSEDTALYYCARERPMDYWGQGTSVTVSS VL: DIQMTQSPSTLSASVGDRVTITCRASQDVGTAVAWYQQKPGQPPKLLIYWASTRHTGVPDRFSGSGSGTDFTLTISSLQAEDFATYYCHQHSSNPLTFGQGTKLEIK | 5.09 | 8.96 | 0.00201 | 225000 |
| VH0/Vκ1 (control) (antibody, V domains shown) VH: EVQLVESGGALVKPGGSLKLSCAASGFTFSNYAMSWVRQTPEKRLEWVATISNRGSYTYYPDSVKGRFTISRDNAKNTLYLQMSSLRSEDTALYYCARERPMDYWGQGTSVTVSS VL: DIVMTQSPSFLSASVGDRVTITCKASQDVGTAVAWYQQKPGQPPKLLIYWASTRHTGVPDRFTGSGSGTDFTLTISSLQSEDFAVYFCHQHSSNPLTFGQGTKLEIK | 1.52 | 2.68 | 0.00157 | 586000 |
| VH3/Vκ4 (antibody, V domains shown) VH: EVQLVESGGGLVKPGGSLRLSCAASGFTFSNYAMSWVRQAPGKGLEWVATISNRGSYTYYADSVKGRFTISRDNAKNSLYLQMNSLRAEDTALYYCARERPMDYWGQGTLVTVSS VL: DIQMTQSPSTLSASVGDRVTITCRASQDVGTAVAWYQQKPGQPPKLLIYWASTRHTGVPDRFSGSGSGTDFTLTISSLQAEDFAVYYCHQHSSNPLTFGQGTKLEIK | 9.83 | 17.3 | 0.0046 | 267000 |
| VH3/Vκ5 (antibody, V domains shown) VH: EVQLVESGGGLVKPGGSLRLSCAASGFTFSNYAMSWVRQAPGKGLEWVATISNRGSYTYYADSVKGRFTISRDNAKNSLYLQMNSLRAEDTALYYCARERPMDYWGQGTLVTVSS VL: DIQMTQSPSTLSASVGDRVTITCRASQDVGTAVAWYQQKPGQPPKLLIYWASTRHTGVPDRFSGSGSGTDFTLTISSLQAEDFATYYCHQHSSNPLTFGQGTKLEIK | 8.98 | 15.8 | 0.00451 | 285000 |
| VH2/Vκ2 (antibody, V domains shown) VH: EVQLVESGGGLVKPGGSLRLSCAASGFTFSNYAMSWVRQAPGKGLEWVATISNRGSYTYYPDSVKGRFTISRDNAKNSLYLQMNSLRAEDTALYYCARERPMDYWGQGTLVTVSS VL: DIVMTQSPSTLSASVGDRVTITCKASQDVGTAVAWYQQKPGQPPKLLIYWASTRHTGVPDRFTGSGSGTDFTLTISSLQAEDFAVYFCHQHSSNPLTFGQGTKLEIK | 7.9 | 13.9 | 0.00326 | 234000 |
| VH1/Vκ4 (antibody, V domains shown) VH: EVQLVESGGGLVKPGGSLRLSCAASGFTFSNYAMSWVRQAPGKGLEWVATISNRGSYTYYPDSVKGRFTISRDNAKNSLYLQMSSLRSEDTALYYCARERPMDYWGQGTSVTVSS VL: DIQMTQSPSTLSASVGDRVTITCRASQDVGTAVAWYQQKPGQPPKLLIYWASTRHTGVPDRFSGSGSGTDFTLTISSLQAEDFAVYYCHQHSSNPLTFGQGTKLEIK | 3.7 | 6.52 | 0.00294 | 451000 |
| VH3/Vκ2 (antibody, V domains shown) VH: EVQLVESGGGLVKPGGSLRLSCAASGFTFSNYAMSWVRQAPGKGLEWVATISNRGSYTYYADSVKGRFTISRDNAKNSLYLQMNSLRAEDTALYYCARERPMDYWGQGTLVTVSS VL: DIVMTQSPSTLSASVGDRVTITCKASQDVGTAVAWYQQKPGQPPKLLIYWASTRHTGVPDRFTGSGSGTDFTLTISSLQAEDFAVYFCHQHSSNPLTFGQGTKLEIK | 9.09 | 16 | 0.00377 | 236000 |
| VH3/Vκ1 (antibody, V domains shown) VH: EVQLVESGGGLVKPGGSLRLSCAASGFTFSNYAMSWVRQAPGKGLEWVATISNRGSYTYYADSVKGRFTISRDNAKNSLYLQMNSLRAEDTALYYCARERPMDYWGQGTLVTVSS VL: DIVMTQSPSFLSASVGDRVTITCKASQDVGTAVAWYQQKPGQPPKLLIYWASTRHTGVPDRFTGSGSGTDFTLTISSLQSEDFAVYFCHQHSSNPLTFGQGTKLEIK | 7.9 | 13.9 | 0.00404 | 291000 |
| VH3/Vκ3 (antibody, V domains shown) VH: EVQLVESGGGLVKPGGSLRLSCAASGFTFSNYAMSWVRQAPGKGLEWVATISNRGSYTYYADSVKGRFTISRDNAKNSLYLQMNSLRAEDTALYYCARERPMDYWGQGTLVTVSS VL: DIQMTQSPSTLSASVGDRVTITCKASQDVGTAVAWYQQKPGQPPKLLIYWASTRHTGVPDRFSGSGSGTDFTLTISSLQAEDFAVYFCHQHSSNPLTFGQGTKLEIK | 8.47 | 14.9 | 0.00329 | 220000 |
| VH2/Vκ5 (antibody, V domains shown) VH: EVQLVESGGGLVKPGGSLRLSCAASGFTFSNYAMSWVRQAPGKGLEWVATISNRGSYTYYPDSVKGRFTISRDNAKNSLYLQMNSLRAEDTALYYCARERPMDYWGQGTLVTVSS VL: DIQMTQSPSTLSASVGDRVTITCRASQDVGTAVAWYQQKPGQPPKLLIYWASTRHTGVPDRFSGSGSGTDFTLTISSLQAEDFATYYCHQHSSNPLTFGQGTKLEIK | 9.43 | 16.6 | 0.00375 | 225000 |
| VH2/Vκ4 (antibody, V domains shown) VH: EVQLVESGGGLVKPGGSLRLSCAASGFTFSNYAMSWVRQAPGKGLEWVATISNRGSYTYYPDSVKGRFTISRDNAKNSLYLQMNSLRAEDTALYYCARERPMDYWGQGTLVTVSS VL: DIQMTQSPSTLSASVGDRVTITCRASQDVGTAVAWYQQKPGQPPKLLIYWASTRHTGVPDRFSGSGSGTDFTLTISSLQAEDFAVYYCHQHSSNPLTFGQGTKLEIK | 6.19 | 10.9 | 0.00368 | 339000 |
| VH2/Vκ1 (antibody, V domains shown) VH: EVQLVESGGGLVKPGGSLRLSCAASGFTFSNYAMSWVRQAPGKGLEWVATISNRGSYTYYPDSVKGRFTISRDNAKNSLYLQMNSLRAEDTALYYCARERPMDYWGQGTLVTVSS VL: DIVMTQSPSFLSASVGDRVTITCKASQDVGTAVAWYQQKPGQPPKLLIYWASTRHTGVPDRFTGSGSGTDFTLTISSLQSEDFAVYFCHQHSSNPLTFGQGTKLEIK | 11.8 | 20.7 | 0.00373 | 180000 |
